Measurements reported in patent US6890526B2, “Methods and reagents for the treatment of multiple sclerosis” (Vanderbilt University, priority 1997, dated 2005).

Experiments:
[1] = test system: MOMP gene of C. pneumoniae; assay: PCR/Southern hybridization of CSF for the MOMP gene; conditions: CSF PCR signal for the MOMP gene of C. pneumoniae after antibiotics; all patients PCR-positive before therapy
Procedure: To at least 300 μl of CSF sample, 200 μl of HBSS containing 0.25% trypsin and 1 mM EDTA at pH 7.2 was added to achieve a final concentration of 0.1% trypsin, and the sample vortexed and then incubated at 37° C. for 30 minutes. Following incubation, the sample was again vortexed, centrifuged for 45 minutes at 12,000×g in a microcentrifuge, and the pellet resuspended in 20 μl of lysis buffer (0.5% sodium dodecylsulfate (SDS), 1% NP40, 0.2 M NaCl, 10 μM DTT, 10 mM EDTA, 20 mM Tris-HCl at pH 7.5). To this was added 8 μl of proteinase K (20 μg/ml; Boehringer-Mannheim, Indianapolis, Ind.), after which the specimen was mixed and incubated overnight at 37° C. […]
PCR was carried out using the entire MOMP gene (1.2 kb) using Deep Vent polymerase in the manufacturer's buffer (New England Biolabs, Boston, Mass.) with no additional MgCl2. […] PCR reactions were analyzed by electrophoresis in 1% agarose gel for 45 minutes at 95 volts. For confirmation and enhanced sensitivity, the gels were further analyzed by Southern hybridization using a digoxigenin-labeled (DIG, Boehringer-Mannheim) MOMP gene probe from the TWAR strain of C. pneumoniae (ATCC VR-1310). […]
Nested PCR primers were chosen within the MOMP which are C. pneumoniae specific (located in variable domains 1 and 4) and yield a 727 bp band. […] PCR reactions were analyzed by electrophoresis in 1% agarose gel for 45 minutes at 95 volts. […]

MS patients [2] = assay: Long-term combination therapy of 12 progressive MS patients, EDSS (Table 11); type: in vivo, human; conditions: patient #12; azithromycin substituted
Procedure: All 12 patients were positive by PCR for the MOMP gene of C. pneumoniae in the CSF. In 10 of 12 patients, the highest Expanded Disability Status Scale (EDSS; Kurtzke, Neurology 33:1444-1152, 1983) score reached was sustained for six months. […] The antibiotic regimen in eight of 12 patients was a combination of rifampin (300 mg twice daily), amoxicillin (500 mg twice daily) and probenecid (500 mg daily).

MS patients [3] = assay: Treatment of MS patients with combinations of anti-chlamydial agents, case histories (Tables 8-10); type: in vivo, human; conditions: patient; drug stopped, later phased back in
Text: The case histories for these patients are described in Table 9.

iNOS = assay: Measurement of NO production (nitrite, Greiss reagent) in splenic macrophage culture supernatants; type: cell-based, mouse
Procedure: (§1) Splenocytes were washed twice in PBS and plated in 24-well culture plates (Corning, Corning, N.Y.) in Dulbecco's minimal essential medium (DMEM; GIBCO BRL, Gaithersburg, Md.) containing 10% fetal calf serum (FCS; Hyclone, Logan, Utah) at 37° C. for two hours. Non-adherent cells were washed away by gentle rinsing in warm medium, and the macrophages were allowed to adhere to the plastic wells overnight. For optimal growth of macrophages, colony stimulating factor-1 (CSF-1) obtained from culture supernatants of LADMAC cells (American Type Tissue Collection (ATCC), Manassas, Va.) was added to reach a final concentration of 20%. After reaching confluence, cells were removed from the plastic wells by gentle trituration and examined for their purity by staining with fluoroscein-conjugated anti-CD11b and anti-I-As (clone 10-3.6) antibodies.
EB antigens were prepared from concentrated C. pneumoniae EBs by treating them with 25 mM DTT, 2% 2-mercaptoethanol, and 2% dodecylsulfate (SDS) for 5 minutes at 100° C. Treated EBs were sonicated, centrifuged (500×g for 30 minutes at room temperature) and the supernatant resuspended at 2 μg/ml protein in PBS pH 7.4. Concentrated C. pneumoniae EBs were obtained by growing C. pneumoniae (VR-1310; ATTC) in 25 ml flasks containing a confluent growth of HL cells (Human Lung Carcinoma Cells; Washington University Foundation, Seattle, Wash.) in DMEM and 10% FCS . Infection was facilitated by two washes with Hank's balanced salt solution (HBSS; GIBCO) followed by a 20 minute pre-incubation with diethylaminoethyl-dextran (30 μg/ml) (DEAE-Dextran; GIBCO) in HBSS. The infectious inoculum (ATCC VR-1310) was added to the flasks in 2 ml of serum-free media. The flasks were then centrifuged at 1,200×g for 1 hour at 4° C. To the spun flasks was added 2 ml of Iscoves medium (GIBCO) containing 4 μg/ml cyclohexamide, 20% FCS, 4 mM L-glutamine (Sigma), and 100 μg/ml gentamicin (Sigma). The flasks were then incubated at 35° C. for three days at which time the infected cells begin to lyse and release EBs. On day 4, the culture flasks were sonicated for 20 seconds, and the cell debris removed by centrifugation at 600×g for five minutes at room temperature. The supernatant containing the infectious EBs was centrifuged at 18,000×g for 30 minutes, and the pellet resolubilized in water containing 25 mM DTT, 2% 2-mercaptoethanol, and 2% SDS.
Preparation of purified rMOMP was performed as follows. The full-length native C. pneumoniae MOMP gene was expressed in the pET-32/a (+) E. coli expression system using a polyhistidine tag (Novagen, Madison, Wis.). Briefly the MOMP was amplified under the same PCR conditions with a NcoI extension on the forward primer and a NotI extension on the reverse primer. The 5′ to 3′ sequence of the forward primer was AGCTTACCATGGTGAATGAAAAAACTCTTAAAGTCGGCG (SEQ ID NO: 9) and the reverse primer was ATATGCGGCCGCTCATTAGAATCTGAACTGACCAGATACG (SEQ ID NO: 10). The product was cut with NotI and NcoI and ligated into the multiple cloning site in a previously linearized pET vector. E. coli was transformed and selectively grown, lysed with a French press, and the protein extract was run over a Ni-chelate column and eluted with […]. […]
NO is rapidly oxidized to nitrite in culture medium. […] After a 10 minute incubation at room temperature, the absorbance was read at 550 nm. Nitrite concentrations were calculated from a sodium nitrite standard curve.

iNOS (NOS2) gene = assay: RT-PCR for iNOS (NOS2) gene products in splenic macrophages; type: cell-based, mouse; conditions: β-IFN alone; compared with GAPDH mRNA (FIG. 12A)
Procedure: as §1
Mouse splenic macrophages were homogenized in TRI reagent (Molecular Research Center, Cincinnati, Ohio), and total RNA was extracted according to the manufacturer's protocol. […]

IL-12/p40 = assay: Sandwich ELISA for IL-12/p40 in macrophage culture supernatants; type: cell-based, mouse
Procedure: as §1
IL-12/p40 in culture supernatants was quantitated using sandwich ELISA methodology. Antibody C17.15 was coated onto ELISA plates at 2 μg/ml in 100 μl of carbonate buffer at pH 9.3. After overnight incubation at 4° C., excess antibody was washed off, and the plates were blocked by addition of PBS containing 3% BSA. Samples and standards were plated in triplicate and incubated overnight at 4° C. […] The absorbance was read at 405 nm and sample concentrations of IL-12/p40 were calculated from a rIL-12/p40 standard curve.

Molecule: CC[C@H]1OC(=O)[C@H](C)[C@@H](O[C@H]2C[C@@](C)(OC)[C@@H](O)[C@H](C)O2)[C@H](C)[C@@H](O[C@@H]2O[C@H](C)C[C@H](N(C)C)[C@H]2O)[C@](C)(O)C[C@@H](C)CN(C)[C@H](C)[C@@H](O)[C@]1(C)O [azithromycin]
- PCR Signal Post-antibiotics [1]: Absent

Molecule: CO[C@H]1/C=C/O[C@@]2(C)Oc3c(C)c(O)c4c(O)c(c(/C=N/N5CCN(C)CC5)c(O)c4c3C2=O)NC(=O)/C(C)=C\C=C\[C@H](C)[C@H](O)[C@@H](C)[C@@H](O)[C@@H](C)[C@H](OC(C)=O)[C@@H]1C [rifampin]
- side effects (MS patients [2]): gastrointestinal side effects

Molecule: Cc1ncc([N+](=O)[O-])n1CCO [metronidazole, Metronidazole]
- side effects (MS patients [3]): side effects

B1: β-IFN: Murine β-IFN obtained commercially (Bio-Source International); type-1 interferon (protein, UniProt P01575 22-182, looked up)
Interferon beta: INYKQLQLQERTNIRKCQELLEQLNGKINLTYRADFKIPMEMTEKMQKSYTAFAIQEMLQNVFLVFRNNFSSTGWNETIVVRLLDELHQQTVFLKTVLEEKQEERLTWEMSSTALHLKSYYWRVQRYLKLMKYNSYAWMVVRAEIFRNFLIIRRLTRNFQN
- nitrite levels (iNOS; 10 U of β-IFN added to EB antigen-treated macrophages, 48 hours (FIG. 10)): 27.3 ± 0.4 µM
- increase in NO (iNOS; 10 U of β-IFN, macrophages cultured with LPS): 35%
- increase in the nitrite level (iNOS; 10 U of β-IFN, macrophages incubated with 2 μg/ml of rMOMP): 47%
- nitrite levels in supernatants (iNOS; prior addition of 1000 U of β-IFN to EB antigen-treated cultures, 48 hours (FIG. 9)): 19.6 µM
- nitrite levels in macrophage culture supernatants (iNOS; β-IFN alone, no antigen): did not increase nitrite levels
- RT-PCR signals for NOS2 gene (iNOS (NOS2) gene): increased RT-PCR signals for NOS2 gene
- suppression of induction of IL12/p40 (IL-12/p40; 10 U of β-IFN, EB antigens): 78%
- IL-12/p40 levels (IL-12/p40; macrophages pretreated with β-IFN, then EB antigens for 48 hours (FIG. 14)): 1.5 ± 0.09 ng/mL
